In PMC5958125, “IgG-single-chain TRAIL fusion proteins for tumour therapy” (Scientific Reports, 2018):
Each block holds one molecule with its values, some of them ahead of it.

Legend:
Assay in all cases: ELISA; TRAILR1-Fc or TRAILR2-Fc coated (200 ng/well in 0.1 M sodium carbonate buffer, pH 9.5), samples in 3% skim milk/PBS titrated 1:3 from 150 nM, 2 h room temperature, concentrations normalised to one scTRAIL unit, detected with anti-FLAG M2-HRP
TRAILR2-Fc [1] = target: TRAILR2-Fc (UniProt O14763)
TRAILR1-Fc = target: T1, TRAILR1-Fc (UniProt O00220 24-239); conditions: both partners purified
T1 construct: TRAIL receptor 1 (TRAILR1); Probably the extracellular domain fused to an Fc
T1 sequence (O00220 24-239): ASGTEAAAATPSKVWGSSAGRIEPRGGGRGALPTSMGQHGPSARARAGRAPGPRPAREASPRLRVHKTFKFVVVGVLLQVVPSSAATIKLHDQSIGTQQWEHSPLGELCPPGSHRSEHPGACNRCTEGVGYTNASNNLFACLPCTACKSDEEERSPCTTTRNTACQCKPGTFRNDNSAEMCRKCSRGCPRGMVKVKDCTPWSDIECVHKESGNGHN

TRAILR2-Fc [2] = target: T2, TRAILR2-Fc (UniProt O14763 56-210); conditions: both partners purified
T2 construct: TRAIL receptor 2 (TRAILR2); Probably the extracellular domain fused to an Fc

EC50 (TRAILR2-Fc [1]): 3.4 nM
Molecule: LC/HC-scTRAIL (fusion of scTRAIL to both hu225 IgG chains)

EC50 (TRAILR2-Fc [1]): 0.8 nM
Molecule: HC-scTRAIL (fusion of scTRAIL to hu225 IgG heavy chains)

EC50 (TRAILR2-Fc [1]): 0.9 nM
Molecule: LC-scTRAIL (fusion of scTRAIL to hu225 IgG light chains)

EC50 (TRAILR1-Fc): 7.3 nM | EC50 (TRAILR2-Fc [2]): 1.1 nM
B1: Fc-scTRAIL-FAVSGAA (Fc fusion)
chain: AAHITGTRGRSNTLSSPNSKNEKALGRKINSWESSRSGHSFLSNLHLRNGELVIHEKGFYYIYSQTYFRFQEEIKENTKNDKQMVQYIYKYTSYPDPILLMKSARNSCWSKDAEYGLYSIYQGGIFELKENDRIFVSVTNEHLIDMDHEASFFGAFAVSGAAHITGTRGRSNTLSSPNSKNEKALGRKINSWESSRSGHSFLSNLHLRNGELVIHEKGFYYIYSQTYFRFQEEIKENTKNDKQMVQYIYKYTSYPDPILLMKSARNSCWSKDAEYGLYSIYQGGIFELKENDRIFVSVTNEHLIDMDHEASFFGAFAVSGAAHITGTRGRSNTLSSPNSKNEKALGRKINSWESSRSGHSFLSNLHLRNGELVIHEKGFYYIYSQTYFRFQEEIKENTKNDKQMVQYIYKYTSYPDPILLMKSARNSCWSKDAEYGLYSIYQGGIFELKENDRIFVSVTNEHLIDMDHEASFFGAFAVS
